Results: patent US20210015931A1 (KOREA INSTITUTE OF SCIENCE AND TECHNOLOGY, published 2021)

Target: T1, CD47 receptors on HT-29 cells (human-derived colon cancer cells) (human, UniProt Q08722 19-323)
T1 construct: whole, on cells
Experiment: confocal microscopy on HT-29 cells, uptake with and without CD47 antibody
Experimental: It was investigated whether the fusion protein-siRNA complex prepared in Example 2 is effectively taken up into cells in vitro. First, 2×10⁵ HT-29 cells, which are human-derived colon cancer cells, were seeded onto a 35-mm cover glass bottom dish. Then, after adding SIRPα protein (SIRPα), CD47 siRNA or the fusion protein-siRNA complex prepared in Example 2 (SIPRα-CD47 siRNA), the cells were cultured at 37° C. for a day. Then, CD47 SiRNA was stained red by using the TOTO3 stain. Next, after treating with the fusion protein-siRNA complex separated and purified in Example 2 at a concentration of 100 pmol/mL, the cells were cultured for 4 hours in a carbon dioxide incubator at 37° C. Then, the cells were treated with a fixative and the SIRPα protein was stained green using FITC-labeled His-tag antibody. After staining the nuclei of the cells by treating with a 4′,6-diamidino-2-phenylindole (DAPI) solution for 10 minutes, fluorescence was measured by confocal microscopy.
A mixture solution of the fusion protein-siRNA complex prepared in Example 2 and the CD47 antibody (Ab) was used as a control group.

T1 sequence (Q08722 19-323): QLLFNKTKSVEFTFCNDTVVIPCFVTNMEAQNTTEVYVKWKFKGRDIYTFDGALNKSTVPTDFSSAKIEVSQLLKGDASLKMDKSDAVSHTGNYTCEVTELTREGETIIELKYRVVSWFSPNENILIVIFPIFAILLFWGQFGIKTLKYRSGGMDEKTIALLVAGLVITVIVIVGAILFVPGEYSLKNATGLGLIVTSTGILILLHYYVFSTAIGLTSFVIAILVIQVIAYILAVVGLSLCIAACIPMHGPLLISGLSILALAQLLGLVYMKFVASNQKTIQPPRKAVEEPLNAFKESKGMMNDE

B1: fusion protein-siRNA complex prepared in Example 2 (SIRPα-CD47 siRNA) (other)
chain: EEELQIIQPDKSVLVAAGETATLRCTITSLFPVGPIQWFRGAGPGRVLIYNQRQGPFPRVTTVSDTTKRNNMDFSIRIGNITPADAGTYYCIKFRKGSPDDVEFKSGAGTELSVRAKPVDGGFLGGGGCG
modifications: CD47 siRNA (sense SEQ ID NO: 17, antisense SEQ ID NO: 18) bound 1:1 through maleimide at the 3'-end of the sense strand to the thiol group of the cysteine at the end of the fusion protein
notes: The protein was expressed from pET28a in E. coli, purified on a His-tag column and detected with a His-tag antibody; also called SIPRα-CD47 siRNA; immunoregulatory protein-siRNA complex
binding result: binds
